Results reported in patent publication US20240358850A1.

Target: denatured collagen type-IV
Assay: cell-based or functional assay

Row | Binder | inhibition of B16F10 melanoma cell adhesion to denatured collagen type-IV coated wells (antibody 100 µg/ml)
1 | Humanized anti-HU177 antibody (antibody, human IgG1, kappa, V domains shown) VH: QVTLKESGPALVKPTQTLTLTCTFSGFSLSTPGMGVWWIRQPPGKALEWLADIWWDDNKYTNPSLKSRLTISKDTSKNQVVLTMTNMDPVDTATYYCARRANYGNPYYAQDYWGQGTTVTVSS VL: DIVMTQTPLSLPVTPGEPASISCRSSQSIVSSWGNTYLEWYLQKPGQSPQLLIYKVSNRFSGVPDRFSGSGSGTDFTLKISRVEAEDVGVYYCFQGSHVPWTFGQGTKVEIKR | > 40%
2 | MMAE-conjugated anti-HU177 antibody (Anti-HU177-MMAE) (antibody, V domains shown, MMAE conjugated with the Perkit Antibody MMAE Conjugation Kit; conjugation sites and chain not stated) VH: QVTLKESGPALVKPTQTLTLTCTFSGFSLSTPGMGVWWIRQPPGKALEWLADIWWDDNKYTNPSLKSRLTISKDTSKNQVVLTMTNMDPVDTATYYCARRANYGNPYYAQDYWGQGTTVTVSS VL: DIVMTQTPLSLPVTPGEPASISCRSSQSIVSSWGNTYLEWYLQKPGQSPQLLIYKVSNRFSGVPDRFSGSGSGTDFTLKISRVEAEDVGVYYCFQGSHVPWTFGQGTKVEIKR | > 40%
